Source: patent US20110288001A1, “BIOLOGICALLY ACTIVE PROTEINS ACTIVATABLE BY PEPTIDASE” (priority 2008, published 2011)

Key:
[1] = target: human GLP1 receptor (human) (UniProt P43220); test: cell-based or functional assay
[2] = in vivo; cited from earlier work
[3] = in vivo; cited from earlier work; remark: listed apart in the source
[4] = system: PB0967, GLP1-ELP construct with Met-Ala-Ala at the N-terminus (Met removed by E. coli), not treated with DPP-IV

Sequence of UniProt P43220 (P43220 24-463): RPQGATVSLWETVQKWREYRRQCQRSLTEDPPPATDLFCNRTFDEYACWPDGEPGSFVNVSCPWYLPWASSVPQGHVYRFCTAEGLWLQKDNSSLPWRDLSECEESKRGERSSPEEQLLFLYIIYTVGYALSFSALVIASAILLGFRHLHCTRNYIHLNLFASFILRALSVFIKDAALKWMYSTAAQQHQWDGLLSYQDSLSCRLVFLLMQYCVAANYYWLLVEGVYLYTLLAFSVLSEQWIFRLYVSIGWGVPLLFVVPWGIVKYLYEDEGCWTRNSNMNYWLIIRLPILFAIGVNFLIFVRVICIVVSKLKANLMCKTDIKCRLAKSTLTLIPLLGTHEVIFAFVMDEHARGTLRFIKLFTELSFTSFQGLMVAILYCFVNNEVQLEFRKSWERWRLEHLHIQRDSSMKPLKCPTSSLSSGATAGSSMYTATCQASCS

## Exendin-4 peptide
[1]
  EC50 in cAMP assay: 1 nM

## GLP-1: native glucagon-like peptide-1, physiological incretin originating from preproglucagon
[2]
  plasma half-life (t1/2): 1 to 2 min

## HSDAVFTDNYTRLRKQMAVKKYLNSILN [VIP]
[3]
  half-life in the blood: about two

## dipeptidyl peptidase-4 (DPP-IV)
[4]
  gain of cAMP activity of the substrate after DPP-IV treatment (enzyme processing): is activated if it is first treated with DPP-IV to remove the remaining Ala-Ala and expose the N-terminal His of GLP1
